Source: patent US20230025707A1 (University of Pennsylvania, published 2023)

Columns and labels:
[1] = target: T1, human α-Synuclein pre-formed fibrils (human, UniProt P37840 1-140); assay: cell-based or functional assay
[2] = target: T1, human α-Synuclein pre-formed fibrils; assay: sandwich ELISA; PFF vs monomer from EC50s, Syn211 as control
Method: Fibrils were then sonicated on high for 10 cycles of 30 seconds on, 30 seconds off (Diagenode Biorupter UCD-300 bath sonicator) prior to dilutions. Dilutions were added to each well (30 μL per well) and incubated overnight at 4° C. The plate was washed 4 times with PBST. 30 μL of MJF-R1 (1:3,000, Abcam Cat #ab138501) in Buffer C was added to each well and the plate was incubated for 4 hours at 37° C. After washing with PBST 4 times, 1:10 k diluted goat-anti-rabbit IgG-HRP conjugate (Cell Signaling Technology) was added to the plate and the plate was incubated for 1 hour at 37° C.
This assay retains the conformation of α-Synuclein by allowing binding of α-Synuclein that is in solution to immobilized antibody, and allows a broad range of affinity detection. Antibodies of interest were coated on an ELISA plate and either α-Synuclein monomer or PFF were incubated with the antibodies at increasing α-Synuclein concentrations to determine relative affinity of the antibodies for each form of α-Synuclein.
By fitting the absorbance values with a sigmoid dose curve, EC₅₀ values were calculated for each antibody.

Lewy body α-Synuclein = Lewy body α-Synuclein (human, UniProt P37840 1-140); assay: IHC, human amygdala; OD of Lewy bodies / OD of tissue
From the text: FIG. 2A: Sections of amygdala tissue containing abundant Lewy body pathology were stained using undiluted or 1:3 diluted hybridoma supernatant. […] FIG. 2B: The optical density within Lewy bodies divided by the optical density of a 1 mm² tissue section containing those Lewy bodies was defined as the Lewy Body Discrimination Index. Antibodies preferentially recognizing Lewy bodies score high on this measure.
In order to rapidly screen for antibody selectivity to pathological α-Synuclein, amygdala sections from PD patients with abundant LB pathology were immunostained. Hybridoma supernatants were used undiluted or at a 1:3 dilution on screening slides processed in parallel to allow direct comparison of immunostaining. […] A value of 1 indicates no discrimination of LBs over normal synaptic neuropil staining.

% Inhibition (primary neuron assay) [1] [%] | PFF Preference [2] | LB Discrimination Index (Lewy body α-Synuclein) | Binder
91.3 | 2.73 | 1.62 | 9100 (antibody, IgG2b, V domains shown) VH: EVQLVESGGVLVKPGGSLKLSCAASGFTFSSFAMSWVRQTPEKRLEWVATISNGGSYTYYPDSVKGRFTISRDNAKNTLYLRMSSLRSEDTAMYYCVRRATTRGYFDYWGQGTTLTVSS VL: QIFLTQSPAIMSASPGEKVTMTCSASSSVSYMYWYQQKPGSSPRLLIYDSSKLASGVPVQFSGSGSGTSYSLTISRMEAEDAATYYCQQWRSYPPTFGAGTKLELK
85.3 | 5.26 | 1.47 | 9099 (antibody, IgG2b, V domains shown) VH: EVQLVESGGVLVKPGGSLKLSCAASGFTFSSFAMSWVRQTPEKRLEWVATISNGGSYTYYPDSVKGRFTISRDNAKNTLYLRMSSLRSEDTAMYYCVRRATTRGYFDYWGQGTTLTVSS VL: QIFLTQSPAIMSASPGEKVTMTCSASSSVSYMYWYQQKPGSSPRLLIYDSSKLASGVPVQFSGSGSGTSYSLTISRMEAEDAATYYCQQWRSYPPTFGAGTKLELK
84.7 | 1 | 1.81 | 9021 (antibody, IgG1, V domains shown) VH: EVMMVESGGGLVKPGGSLKLSCAASGFTFSNYAMSWVRQTPEKRLEWVATISTGGGYTYYPDSMKGRFTISRDNAKNTLYLQMSSLRSEDTAMYYCARRGTARGYFDVWGAGTTVTVSS VL: QIVLTQSPAIMSASPGEKVTMTCSASSSVSYMYWYQQKPESSPRLLIYDTSNLASGVPVRFSGSGSGTSYFLTISRMEAEDAATYYCQQWKTYPPTFGGGTKLEIK
-27.9 | 93.8 | 1.9 | 9092 (antibody, IgG1, V domains shown) VH: QVQLQQSGPELVKPGASVRISCKASGYTFTTFYLHWVKQRPGQGLEWIGWIYPVNVKIKYSERFKGKATLTADKSSSTAYMQLGSLTSEDSAVYFCVRGGRGLDYWGQGTTLTVSS VL: NIMMTQSPSSLAVSAGEKVTMSCKSSQSVLYSSNQKNYLAWYQQKPGQSPKMLIYWASFRESGVPDRFTGSGSGTDFTLTISSVQAEDLAVYYCHQYLSLFTFGSGTKLEIK
88.1 | 0.855 | 1.95 | 9064 (antibody, IgG1, V domains shown) VH: EVHLVESGGGLVQPKGSLKLSCAASGFTFNTYAMHWVRQAPGKGLEWVARIRNKSNNYATYYADSVKDRFTISRDDSQSMLFLQMDNLKTEDTAIYYCVRGGLSPFDYWGQGTTLTVSS VL: QIVLTQSPAIMSASPGEKVTMTCSASSSVTYMHWYQQKSGTSPKRWIYDTSKLASGVPARFSGSGSGTSYSLTISSMEAEDAATYYCQQWSSNPPTFGGGTKLEIR
81.6 | 0.533 | 1.73 | 9110 (antibody, IgG1, V domains shown) VH: EVHLVESGGGLVQPKGSLKLSCAASGFTFNTYAMHWVRQAPGKGLEWVARIRNKSNNYATYYADSVKDRFTISRDDSQSMLFLQMDNLKTEDTAIYYCVRGGLSPFDYWGQGTTLTVSS VL: QIVLTQSPAIMSASPGEKVTMTCSASSSVTYMHWYQQKSGTSPKRWIYDTSKLASGVPARFSGSGSGTSYSLTISSMEAEDAATYYCQQWSSNPPTFGGGTKLEIR
79.3 | 0.605 | 1.89 | 9071 (antibody, IgG1, V domains shown) VH: EVHLVESGGGLVQPKGSLKLSCAASGFTFNTYAMHWVRQAPGKGLEWVARIRNKSNNYATYYADSVKDRFTISRDDSQSMLFLQMDNLKTEDTAIYYCVRGGLSPFDYWGQGTTLTVSS VL: QIVLTQSPAIMSASPGEKVTMTCSASSSVTYMHWYQQKSGTSPKRWIYDTSKLASGVPARFSGSGSGTSYSLTISSMEAEDAATYYCQQWSSNPPTFGGGTKLEIR
81 | 0.507 | 1.82 | 9009 (antibody, IgG1, V domains shown) VH: EVQLVESGGGLVQPKGSLKLSCAASGFTFNTYAMHWVRQAPGKGLEWVARIRSESNNFATYYADSVKDSFTISRDDSQSMLYLQMNNLKTEDTAVYYCVRGGLSPFDYWGQGTTLTVSS VL: QIVLTQSPAIMSASPGEKVTMTCSASSSVSYMHWYQQKSGTSPKRWIYDTSKLASGVPARFSGSGSGTSYSLTINSMEAEDAATYYCQQWSRNPPTFGGGTKLEIK
62.7 | 1.02 | 1.91 | 9004 (antibody, IgG2b, V domains shown) VH: EVHLVESGGGLVQPKGSLKLSCAASGFTFNTYAMHWVRQAPGKGLEWVARIRSKSNNYATYYADSVKDRFTISRDDSQSMLYLQMNNLKTEDTAMYYCVRGGLSPFDYWGQGTTLTVSS VL: QIVLTQSPAIMSASPGEKVTMTCSASSSVTYMHWYQQKSGTSPKRWIYDTSKLASGVPARFSGSGSGTSYSLTISSMEAEDAATYYCQQWSSNPPTFGGGTKLEIR
81.7 | 0.478 | 1.87 | 9014 (antibody, IgG1, V domains shown) VH: EVQLVESGGGLVQPKGSLKLSCAASGFTFNTYAMHWVRQAPGKGLEWVARIRSESNNFATYYADSVKDSFTISRDDSQSMLYLQMNNLKTEDTAVYYCVRGGLSPFDYWGQGTTLTVSS VL: QIVLTQSPAIMSASPGEKVTMTCSASSSVSYMHWYQQKSGTSPKRWIYDTSKLASGVPARFSGSGSGTSYSLTINSMEAEDAATYYCQQWSRNPPTFGGGTKLEIK
84.3 | 133 | 2.46 | 9047 (antibody, IgG2b, V domains shown) VH: EVQLVESGGGLVKPGGSLKLSCGASGFTFSSFAMSWVRQTPEKRLEWVATISNGGSYTYYPDSVKGRFTISRDNAKNTLYLRMSSLRSEDTALYYCTRRSSTRGFFDYWGPGTTLTVSS VL: QIFLTQSPAIMSASPGEKVTMTCSASSSVTYMYWYQQNPGSSPRLLIYDSSKLASGVPVRFSGSGSGTSYSLTISRMEAEDATTYYCQQWKSYPPTFGTGTKLDLK

The next lines start with the binder.

Binder | % Inhibition (primary neuron assay) [1] [%] | PFF Preference [2] | LB Discrimination Index (Lewy body α-Synuclein)
9005 (antibody, IgG1, V domains shown) VH: EVMLVESGGGLVKSGGSLKLSCAASGFTFSSYAMSWVRQTPEKRLEWVATISTGGGYTYYPDSVKGRFTISRDNAKNTLYLQMSSLRSEDTAMYYCVRRGTARGYFDVWGAGTTVTVSS VL: QIVLTQSPAIMSASPGEKVTMTCSASSSVSYMYWYQQKPESSPRLLIYDTSNLASGVPVRFSGSGSGTSYFLTISRMEAEDAATYYCQQWKTYPPTFGGGTKLEIK | 90.3 | 1.31 | 1.68
9052 (antibody, IgG2b, V domains shown) VH: EVQLVESGGVLVKPGGSLKLSCAASGFTFSSFAMSWVRQTPEKRLEWVATISNGGSYTYYPDSVKGRFTISRDNAKNTLYLRMSSLRSEDTAMYYCVRRATTRGYFDYWGQGTTLTVSS VL: QIFLTQSPAIMSASPGEKVTMTCSASSSVSYMYWYQQKPGSSPRLLIYDSSKLASGVPVQFSGSGSGTSYSLTISRMEAEDAATYYCQQWRSYPPTFGAGTKLELK | 84.3 | 1.47 | 1.74
9096 (antibody, IgG2b, V domains shown) VH: EVQLVESGGGLVKPGGSLKLSCAASGFTFSGYAMSWVRQTPEKRLEWVATISNGGSYTYYPDSVKGRFTISRDNAKKTLYLQMSSLRSEDTAMYYCTRRAATRGYFDYWGQGTTLTVSS VL: QIVLTQSPAIMSASPGEKVTMTCSASSSVSYMYWYQQKPGSSPRLLIYDTSKLASGVPVRFSGSGSGTSYSLTISRMEAEDAATYYCQQWRSYPPTFGAGTKLELK | 85.1 | 1.01 | 1.3
9018 (antibody, IgG2b, V domains shown) VH: EVMLVESGGGLVKPGGSLKLSCAASGFTFSSYAMSWVRQTPEKRLEWVATISTGGGYTYYPDSVKGRFTVSRDNAKNTLYLQMSSLRSEDTAMYYCARRGTSRGYFDVWGAGTTVTVSS VL: QIILTQSPAIMSASPGEKVTMTCSASSSVSYMYWYQQKPESSPRLLIYDTSNLASGVPVRFSGSGSGTSYFLTISRMEAEDAATYYCQQWKTYPPTFGGGTRLEIK | 86.5 | 1.45 | 1.78
9035 (antibody, IgG2b, V domains shown) VH: EVQLVESGGGLVKPGGSLKLSCGASGFTFSSFAMSWVRQTPEKRLEWVATISNGGSYTYYPDSVQGRFTISRDNAKNTLYLRMSSLRSEDTAMYYCARRSSTRGFFDYWGHGTTLTVSS VL: QIFLTQSPAIMSASPGEKVTMTCSASSSVSYMYWYQQKPGSSPRLLIYDSSKLASGVPVQFSGSGSGTSYSLTISRMEAEDAATYYCQQWRSYPPTFGAGTKLELK | 79 | 2.11e+08 | 1.9
9060 (antibody, IgG1, V domains shown) VH: EVHLVESGGGLVQPKGSLKLSCAASGFTFNTYAMHWVRQAPGKGLEWVARIRNKSNNYATYYADSVKDRFTISRDDSQSMLFLQMDNLKTEDTAIYYCVRGGLSPFDYWGQGTTLTVSS VL: QIVLTQSPAIMSASPGEKVTMTCSASSSVTYMHWYQQKSGTSPKRWIYDTSKLASGVPARFSGSGSGTSYSLTISSMEAEDAATYYCQQWSSNPPTFGGGTKLEIR | 83.8 | 0.73 | 1.92
9003 (antibody, IgG1, V domains shown) VH: EVQLVESGGGLVQPKGSLKLSCAASGFTFNTYAMHWVRQAPGKGLEWVARIRSESNNFATYYADSVKDSFTISRDDSQSMLYLQMNNLKTEDTAVYYCVRGGLSPFDYWGQGTTLTVSS VL: QIVLTQSPAIMSASPGEKVTMTCSASSSVSYMHWYQQKSGTSPKRWIYDTSKLASGVPARFSGSGSGTSYSLTINSMEAEDAATYYCQQWSRNPPTFGGGTKLEIK | 82 | 0.565 | 1.94
